Results taken from patent publication US7820179B2, “Pegylated PTH as PTH receptor modulators and uses thereof” (Eli Lilly and Company, priority 2006, dated 2010).
Where two headings read alike, the source gives them in different places. No end group written: not given here.

Legend:
[1] = 5 μg/kg/d (1 nmol/kg/d); cited from earlier work
[2] = tested on: aged osteopenic ovariectomized rats; assay: Weekly PTH(1-34) in aged osteopenic ovariectomized rats; format: in vivo, rat
Method: Six-month old ovariectomized Sprague-Dawley rats are maintained on a 12 hr light/dark cycle at 22° C. with ad lib access to food (TD 89222 with 0.5% Ca and 0.4% P, Teklad, Madison, Wis.) and water. Ovariectomized rats are allowed to lose bone for 1 month, before treatment with rhPTH (1-34) for the following 3 months. The aged osteopenic ovariectomized rats are injected subcutaneously, weekly, with 0, 10 or 30 μg/kg human PTH(1-34) for 12 weeks. Sham and ovx controls are injected with the vehicle only. Lumbar vertebra are excised at necropsy and analyzed by micro-CT (Stratec), and then prepared for biomechanical testing. Strength in Newtons, (N), is evaluated by loading vertebra specimens to failure. Significance with respect to ovx vehicle controls is indicated by * in Table 7 below (Fishers PLSD, P<0.05).

[3] = tested on: aged osteopenic ovariectomized rats; conditions: 5 μg/kg/d, aged osteopenic ovariectomized rat model, literature; cited from earlier work
[4] = tested on: aged osteopenic ovariectomized rats; assay: Aged osteopenic ovariectomized rats: vertebral BMD/BMC, bone biomechanical strength, serum calcium; format: in vivo, rat; conditions: for Hypercalcemic Dose/Femoral Neck Strength Dose / Hypercalcemic Dose/Midshaft Strength Dose / Hypercalcemic Dose/Vertebral BMC Dose / Hypercalcemic Dose/Vertebral BMD Dose / Hypercalcemic Dose/Vertebral Strength Dose: derived from Table 3; for Vertebral BMC Dose: dose at which Sham level of vertebral BMC is achieved; for Vertebral BMD Dose: dose at which Sham level of vertebral BMD is achieved, s.c. every 6 or 7 days for two months; for Fem Neck Strength Dose: dose at which femoral neck strength comparable to sham vehicle control and positive control is achieved; for Midshaft Strength Dose: dose at which midshaft strength comparable to sham vehicle control and positive control is achieved; for Vertebral Strength Dose: dose at which vertebral strength comparable to sham and positive control is achieved; for Hypercalcemia Dose: sera 24 hours after administration, > means highest dose tested, not reached
Method: Hypercalcemia is defined herein as the upper 97.5 percentile serum calcium value of normal ovariectomized vehicle controls for the animal type used, using clinical chemistry data and sera collected from cardiac puncture (International Federation of Clinical Chemistry, H E Solberg in Tietz Fundamentals of Clinical Chemistry, 5th edition, Burtis C A and Ashwood E R, editors, 2001, pp 251-261). The value reflecting the 97.5 percentile is 11.2 mg of calcium per dL of serum from ovx vehicle control. The “Hypercalcemic Dose”, i.e., the dose at which hypercalcemia is observed 24 hours after injection of the test compound using clinical chemistry data and sera collected from cardiac puncture, is determined by interpolation, using regression analysis to fit the calcemic dose response observed 24 hours after administering the compound to ovariectomized rats.
Female Sprague-Dawley rats about 6 months of age are ovariectomized, except for sham controls, and maintained on a 12 hour light/dark cycle at 22° C. with ad lib access to food (TD 89222 with 0.5% Ca and 0.4% P, Teklad, Madison, Wis.) and water. Ovariectomized (Ovx) rats are allowed to lose bone for one month before treatment with compounds of the invention for two additional months. The compound to be tested is subcutaneously administered at various doses (as indicated in Table 3 below) in a vehicle of 20 mM NaH2PO4 in 0.9% NaCl, 3 mg/ml mannitol, pH 5, every 6 or 7 days for two months. Sham and Ovx controls are treated with the vehicle only (“sham vehicle control” and “ovx vehicle control”). Sera are then collected by cardiac puncture under isoflurane anesthesia at necropsy, and analyzed using a clinical chemistry analyzer. Lumbar vertebra L4-6 and left femora are removed, cleaned of soft-tissue and stored in 50% ethanol/saline at 4° C. At room temperature, L-5 in 50% EtOH/saline are wrapped in Parafilm and centered with respect to the QCT gantry (Research M, Stratec). A coronal scout scan of the L-5 vertebra is generated first in 2D before 3D analysis. QCT parameters are measured including BMD (mg/cc), BMC (mg), and cross-sectional area (mm^2). Lumbar vertebra L-5, femoral midshaft, and proximal femur are then prepared for biomechanical testing. Strength (N) is evaluated by loading the specimens to failure as described previously (Sato, et al., Endocrinology, […]:4330-4337, 1997).
Pegylated compounds of the invention are evaluated in this assay relative to a positive control of 3-5 μg/kg/d PTH(1-38). PTH(1-34) and PTH(1-38) are found to be indistinguishable in terms of skeletal efficacy or calcemic effects in osteopenic ovariectomized rats. It has been previously shown that rats administered 5 μg/kg/d (1 nmol/kg/d) PTH(1-34) have a systemic exposure that is about 3 times that of PTH(1-34) (i.e., FORTEO™) in humans (Tashjian and Chabner, J. Bone Miner Res, 17:1151-1161, 2002; Tashjian and Gagel, J. Bone Miner Res, 21:354-365, 2006). […] This is confirmed for PTH(1-38) in this model with a dosing of 3-5 μg/kg/d.

PTHR1 (PTH Receptor 1) = target: T1, PTHR1 (PTH Receptor 1) (Homo sapiens, UniProt Q03431); assay: PTH receptor internalization in HEK 293 cells transfected with PTHR-emGFP; format: cell-based; conditions: 100 nM
T1 construct: host or cells: HEK 293 cells
T1 sequence (Q03431 27-593): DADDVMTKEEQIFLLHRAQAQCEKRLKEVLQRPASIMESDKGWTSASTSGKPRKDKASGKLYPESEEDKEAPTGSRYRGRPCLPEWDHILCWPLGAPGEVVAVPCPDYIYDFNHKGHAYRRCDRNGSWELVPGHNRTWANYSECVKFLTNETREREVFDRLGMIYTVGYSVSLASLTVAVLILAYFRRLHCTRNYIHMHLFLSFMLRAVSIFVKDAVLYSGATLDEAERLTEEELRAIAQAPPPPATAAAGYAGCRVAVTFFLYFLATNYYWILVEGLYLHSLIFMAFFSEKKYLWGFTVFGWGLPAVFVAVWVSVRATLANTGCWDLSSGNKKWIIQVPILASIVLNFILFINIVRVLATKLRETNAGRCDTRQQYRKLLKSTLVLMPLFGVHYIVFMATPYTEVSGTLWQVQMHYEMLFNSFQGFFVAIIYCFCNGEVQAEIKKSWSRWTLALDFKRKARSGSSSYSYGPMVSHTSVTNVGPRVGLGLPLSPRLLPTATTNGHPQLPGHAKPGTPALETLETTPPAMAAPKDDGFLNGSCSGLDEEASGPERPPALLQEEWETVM
Method: The kinetics of PTHR1 (PTH Receptor 1) internalization for compounds of the invention are determined following ligand binding to membrane receptors. HEK 293 cells are transfected with PTHR-emGFP plasmid (Invitrogen).
The cells are seeded at 7,000 cells/well, 100 μL/well into clear bottomed, black, 96 well plate coated with poly-D lysine. 24 hours after being seeded into the 96 well plate, the cells are dosed with 10 μL of a compound to be tested, at final concentrations of 100 nM at staggered time points from 0 minutes to 3 hours. Media is aspirated at end point of dosing. Cells are fixed with 100 μL Prefer (Anatech, Battle Creek, Mich.) for 30 minutes. Prefer is aspirated from the cells, and cells are washed three times with 100 μL 1×PBS. Cells are stained with 100 μL diluted Hoechst nuclear stain (diluted in 1×PBS) for 30 minutes. Hoechst stain is aspirated and replaced with 1×PBS. Plates are stored in the dark at 4° C. until scanning. Cells are scanned within 48 hours using a Cellomics® ArrayScan. Representative data from various timepoints, set forth as percent of vehicle only control (baseline=100%), are presented in Table 8.

[5] = tested on: aged osteopenic ovariectomized rats; assay: Direct comparison of 2 kD and 5 kD pegylated SEQ ID NO: 1 in aged osteopenic ovariectomized rats; format: in vivo, rat; conditions: for Serum Calcium: 24 hours after dosing
Excerpt: A compound of the invention with SEQ ID NO: 1, wherein the mPEG to which it is conjugated is a 2 kD mPEG, is directly compared to a compound of the invention with SEQ ID NO: 1, wherein the mPEG to which it is conjugated is a 5 kD mPEG. Aged osteopenic ovariectomized rats are permitted to lose bone for one month before dosing (nmol/kg as in Table 5 and 6) every 6 days with vehicle alone, or the 2 kD pegylated SEQ ID NO: 1 compound or the 5 kD pegylated SEQ ID NO: 1 compound for 8 weeks.

[6] = up to 30 ug/kg (7 nmol/kg), 12 weeks of treatment
[7] = 11 nmol/kg every 6 days for 8 weeks
[8] = 32 nmol/kg every 6 days for 8 weeks
[9] = 110 nmol/kg every 6 days for 8 weeks

Compound | PTHR1 internalization, percent of vehicle only control (baseline=100%) (PTHR1 (PTH Receptor 1); 20 min) | PTHR1 internalization, percent of vehicle only control (baseline=100%) (PTHR1 (PTH Receptor 1); 40 min) | PTHR1 internalization, percent of vehicle only control (baseline=100%) (PTHR1 (PTH Receptor 1); 60 min) | PTHR1 internalization, percent of vehicle only control (baseline=100%) (PTHR1 (PTH Receptor 1); 180 min) | Hypercalcemic Dose/Femoral Neck Strength Dose [4] | Hypercalcemic Dose/Midshaft Strength Dose [4] | Hypercalcemic Dose/Vertebral BMC Dose [4] | Hypercalcemic Dose/Vertebral BMD Dose [4] | Hypercalcemic Dose/Vertebral Strength Dose [4] | Vertebral BMC Dose [4] | Vertebral BMD Dose [4] | Fem Neck Strength Dose [4] | Midshaft Strength Dose [4] | Vertebral Strength Dose [4] | Hypercalcemia Dose [4] | further results
CC[C@H](C)[C@H](NC(=O)[C@H](CCC(=O)O)NC(=O)[C@H](CO)NC(=O)[C@@H](NC(=O)[C@@H](N)CO)C(C)C)C(=O)N[C@@H](CCC(N)=O)C(=O)N[C@@H](CC(C)C)C(=O)N[C@@H](CCSC)C(=O)N[C@@H](Cc1cnc[nH]1)C(=O)N[C@@H](CC(N)=O)C(=O)N[C@@H](CC(C)C)C(=O)NCC(=O)N[C@@H](CCCCN)C(=O)N[C@@H](Cc1cnc[nH]1)C(=O)N[C@@H](CC(C)C)C(=O)N[C@@H](CC(N)=O)C(=O)N[C@@H](CO)C(=O)N[C@@H](CCSC)C(=O)N[C@@H](CCC(=O)O)C(=O)N[C@@H](CCCN=C(N)N)C(=O)N[C@H](C(=O)N[C@@H](CCC(=O)O)C(=O)N[C@@H](Cc1c[nH]c2ccccc12)C(=O)N[C@@H](CC(C)C)C(=O)N[C@@H](CCCN=C(N)N)C(=O)N[C@@H](CCCCN)C(=O)N[C@@H](CCCCN)C(=O)N[C@@H](CC(C)C)C(=O)N[C@@H](CCC(N)=O)C(=O)N[C@@H](CC(=O)O)C(=O)N[C@H](C(=O)N[C@@H](Cc1cnc[nH]1)C(=O)N[C@@H](CC(N)=O)C(=O)N[C@@H](Cc1ccccc1)C(=O)O)C(C)C)C(C)C [PTH(1-34)] |  |  |  |  |  |  |  |  |  |  |  |  |  |  |  | Systemic exposure in rats relative to PTH(1-34) (FORTEO) in humans [1]: about 3 times; Vertebral strength: Average Load to Failure ([2]; 10 ug/kg s.c. weekly for 12 weeks): 222 N; Vertebral BMD: Average BMD ([2]; 10 μg/kg s.c. weekly for 12 weeks): 534 mg/mL; Vertebral strength: Average Load to Failure ([2]; 30 ug/kg s.c. weekly for 12 weeks): 243 N; Vertebral BMD: Average BMD ([2]; 30 μg/kg s.c. weekly for 12 weeks): 529 mg/mL; Serum Calcium ([2]; approximately 24 hours after the last dose): normal; Effect on vertebral BMD relative to Ovx vehicle controls [2, 6]: no significant effect; Effect on vertebral biomechanical strength relative to Ovx vehicle controls [2, 6]: no significant effect; Restoration of vertebral BMD from Ovx to sham vehicle control levels [3]: restore vertebral BMD from Ovx to sham vehicle control levels
PTH(1-38): positive control, parathyroid hormone fragment 1-38 (SVSEIQLMHNLGKHLNSMERVEWLRKKLQDVHNFVALG) [reference compound] | 166% | 177% | 224% | 175% |  |  |  |  |  |  |  |  |  |  |  | Restoration of vertebral BMD from Ovx to sham vehicle control levels ([4]; 3-5 μg/kg/d, positive control): confirmed
SEQ ID NO: 1 but unpegylated and Lysine at amino acid 26: unpegylated molecule with the backbone of SEQ ID NO: 1 with a lysine residue at position 26 (SVSEIQLMHNLGRHLASMERVEWLRKLLQDVHNF-NH2) | 106% | 126% | 113% | 142% |  |  |  |  |  |  |  |  |  |  |  | 
SEQ ID NO: 1 with 2 kD mPEG (SVSEIQLMHNLGRHLASMERVEWLRKLLQDVHNF-NH2; not fully specified (residue 26)) |  |  |  |  | >10.0 | >3.43 | >3.43 | >1.0 | >10.0 | 32 nmol/kg | 110 nmol/kg | 11 nmol/kg | 32 nmol/kg | 11 nmol/kg | >110 nmol/kg | Vertebral BMD [5, 7]: 590 mg/cc; Serum Calcium [5, 7]: 10.45 mg/dL; Vertebral BMD [5, 8]: 603 mg/cc; Serum Calcium [5, 8]: 10.38 mg/dL; Vertebral BMD [5, 9]: 623 mg/cc; Serum Calcium [5, 9]: 10.25 mg/dL; Hypercalcemia at the highest dose tested ([4]; aged Ovx rats): absence of hypercalcemia
SEQ ID NO: 3 with 2 kD mPEG (PVSEIQLMHNLGRHLASMERVEWLRKLLQDVHNF-NH2; also: 2 kD mPEG, site not given here) |  |  |  |  | 8.8 | 8.8 | 8.8 | >0.9 | >0.9 | 11 nmol/kg | >110 nmol/kg | 11 nmol/kg | 11 nmol/kg | >110 nmol/kg | 97 nmol/kg | 
